This is an account of results in patent US6153382.

The target in series [1] is HIV-1 Rev (Human immunodeficiency virus 1) (UniProt P04618). Put plainly: competition. As to conditions: D1/2 vs labelled RRE; 17 nM rev.
For series [2] the target is unchanged. Put plainly: filter.

As a reminder, the IC50 is the midpoint of a concentration-inhibition curve. Low readings indicate inhibition by little substance, high ones a need for much substance. One may read the Kd as the concentration at which binding is half-saturated. The low end stands for higher affinity, the high end for lower affinity. In the case of R7 full-length RRE transcript (238 nt), the IC50 in series [1] came out at 2 nM. Moreover, the Kd turned out to be 3 nM in series [2] (50% RNA bound at 10 nM rev, 43 mM Tris pH 8.0, 50 mM KCl, 4 C); 2 nM in series [2] (Scatchard high-affinity site, 50 mM KCl); 4 nM in series [2] (Scatchard high-affinity site, 200 mM KCl).
